Assay results: paper PMC3533786 (Molecular Microbiology, 2012)

Key:
[1] = biological target: Rap1a (Resistance associated protein 1a), without its N-terminal signal peptide, His6-tagged (Serratia marcescens Db10); experiment: SEC
[2] = biological target: Rap2a (Resistance associated protein 2a), without its N-terminal signal peptide, His6-tagged (Serratia marcescens Db10); experiment: SEC
[3] = biological target: Rap2b (Resistance associated protein 2b), without its N-terminal signal peptide, His6-tagged (Serratia marcescens Db10); experiment: SEC
[4] = biological target: Tse1 (Pseudomonas aeruginosa) (UniProt Q9I2Q1); conditions: cited from earlier work
[5] = biological target: Rap1a (Resistance associated protein 1a), without its N-terminal signal peptide, His6-tagged (Serratia marcescens Db10); experiment: SEC + other: quantitative in-gel SYPRO Orange staining
SEC = biological target: the molecule itself; experiment: SEC

Rap1a (Resistance associated protein 1a), without its N-terminal signal peptide, His6-tagged (natural protein)
stoichiometry N [1]: 2

Rap2a (Resistance associated protein 2a), without its N-terminal signal peptide, His6-tagged (natural protein)
stoichiometry N [2]: 2

Rap2b (Resistance associated protein 2b), without its N-terminal signal peptide, His6-tagged (natural protein)
stoichiometry N [3]: 2

Tsi1 (from UniProt Q9I2Q0)
Kd [4]: 3 nM

Ssp1 (Secreted small protein 1), His6-tagged recombinant (natural protein)
stoichiometry N (Ssp1 per Rap1a (molar)) [5]: 1

B1: Rap1b (Resistance associated protein 1b), without its N-terminal signal peptide, His6-tagged (natural protein)
chain: APIQDPVAFIKQMPYHQVVKELALSRCLAQVSDSDKAFSLDAARTANAMREWMPFDIESGDEKINVLIDKYKSRINEFHSETKDKSQGVTLNCLRLYHSPELDKLSRQLIAGNPDRTWNQDNAK
modifications: disulphide bond Cys54-Cys120
stoichiometry N (SEC): 2
